According to the nanobody polyreactivity screen of Harvey et al. (2022):

Assay: yeast display, Sf9 membrane polyspecificity reagent, FACS + sequencing; frameworks hold sequencing errors
Outline: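 Polyreactivity labels are assigned by the sorting gate from which each nanobody was recovered. The gates were low and high (top ~1%), set on anti-HA fluorescence for expression and streptavidin fluorescence for reagent binding. Before sorting, galactose-induced (36–48 hours) yeast display cells were stained for 1 hour at 4 °C with 10% biotinylated, detergent-solubilized Sf9 membrane reagent.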

Sequence	polyreactivity (PSR sort gate)
QVQLVESGGGLVQAGGSLRLSCAASGRIFRLYAMGWYRQAPGKERELVATITDVGSTYYADSVKGRFTISRDNAKNTVYLQMNSLKPEDTAVYYCAAESYYTSYWKYYYWGQGTQVTVSS	high polyreactivity
QVQLVESGGGLVQAGGSLRLSCAASGRIFRPYAMGWYRQAPGKERELVAGITSSGGSTYYADSVEGRFTISRDNAKNTVYLQMNSLKPEDTAVYYCAAVHGLFRPLHYYWGQGTQVTVSS	low polyreactivity
QVQLVESGGGLVQAGGSLRLSCAASGRIFRPYAMGWYRQAPGKERELVAGITSSGGSTYYADSVKGRYTISRDNAKNTVYLQMNSLKPEDTAVYYCAAVHGLFRPLHYYWGQGTQVTVSS	low polyreactivity
QVQLVESGGGLVQAGGSLRLSCAASGRIFRPYAMGWYRQAPGKERELVASINYSGGSTYADSVKGRFTISRDNAKNTVYLQMNSLKPEDTAVYYCNVYRDGFRYTAWYTGQTFDYWGQGTQVTVSS	low polyreactivity
QVQLVESGGGLVQAGGSLRLSCAASGRIFRQNAMGWYRQAPGKERELVAAISRSGGSTYYADSVKGRFTISRDNAKNTVYLQMNSLKPEDTAVYYCAADVHTPALYTYAAGDYWGQGTQVTVSS	low polyreactivity
QVQLVESGGGLVQAGGSLRLSCAASGRIFRRNVMGWYRQAPGKEREMLAAIRGTGSTTYADSVKGRFTISRDNEKNTVYLQMNSLKPEDTAVYYCAAVQQGNHGFRYYYWGQGTQVTVSS	high polyreactivity
QVQLVESGGGLVQAGGSLRLSCAASGRIFRRYALGWYRQAPGKERELGAAITRSGGSTYYADSVKGRFTISRDNAKNTVYLQMNSLNPEDTAVYYCYAPSSLGTDYDYWGQGTQVTVSS	high polyreactivity
QVQLVESGGGLVQAGGSLRLSCAASGRIFRRYAMGWYRQAPGKEREFVAAISYGGGSTYYADSVKGRFTISRDNAKYTVSLQMNSLTPEDTAVYYCNADVPKSLLLYYPWGYGYWGQGTQVTVSS	low polyreactivity
QVQLVESGGGLVQAGGSLRLSCAASGRIFRRYAMGWYRQAPGKERELVAAISSGGSTYYADSVKGRFTISRDNEKNTVYLQLNSLKPEDSAVYYCNAKVGAYLNYGYWGQGTQVTVSS	low polyreactivity
QVQLVESGGGLVQAGGSLRLSCAASGRIFRRYAMGWYRQAPGKERELVAAISTSGGSTYYADSVKGRFTISRDNAKNTVYLQMNSLKPEDTAVYYCNVYKPPTRGGVLQYGYWGQGTQVTVSS	low polyreactivity
QVQLVESGGGLVQAGGSLRLSCAASGRIFRRYAMGWYRQAPGKERELVAVISRGGSTHYADSVKGRFTISRDNAKNTVYLQMNSLKPEDTAVYYCNAVVSVYTKDLDYWGQGTQVTVSS	high polyreactivity
QVQLVESGGGLVQAGGSLRLSCAASGRIFRRYAMGWYRQAPGTETELVAAISSGASTYYADSVKGRFTISRDNAKNTVYLQMNSLKPEDTAVYYCAVDRPYYYGYRMDYWGQGTQVTVSS	low polyreactivity
QVQLVESGGGLVQAGGSLRLSCAASGRIFRSNAMGWYRQAPGKERELVAAITWSGGSTYYADSVKGRFTISRDNAKNTVYLQMNSLKPEDTAVYYCAADGYTAYLPYYWFDYWGQGTQVTVSS	high polyreactivity
QVQLVESGGGLVQAGGSLRLSCAASGRIFRSNSMGWYRQAPGKERELVATITRSGGSTYYADSGKGRFSISRDNAKNTVYVQKNSLKPEDTAVYYCNAVFGSAYRAQRIMGYWGQGTQVTVSS	low polyreactivity
QVQLVESGGGLVQAGGSLRLSCAASGRIFRTYAMGWYRQAPGKERELVAAINSVDRTYYADSVKGRFTISRDNAKNTVYLQMNSLKPEDTAVYYCAATIAPTPGYIIYDYWGQGTQVTVSS	high polyreactivity
QVQLVESGGGLVQAGGSLRLSCAASGRIFRVYAMGWYRQAPGKERELVAAISGRGGSTTYADSVKGRFTISRDNAKNTVYLLMNSLKPEDTAVYYCAAGYRVDYWGQGTQVTVSS	low polyreactivity
QVQLVESGGGLVQAGGSLRLSCAASGRIFRVYAMGWYRQAPGKERELVAAISSGGSTNYADSVKGRFTISRDNANNTVYLQMNSLKPEDTAVYYCAATVRGVGYRYYYWGQGTQVTVSS	high polyreactivity
